# Assay results reported in patent US20250101394, “NOVEL CRISPR-CAS12I SYSTEMS AND USES THEREOF” (Huidagene Therapeutics (Singapore) PTE. LTD., published 2025).
# T1: xCas12i (SiCas12i, Cas12i12) (unidentified)
# T1 chain: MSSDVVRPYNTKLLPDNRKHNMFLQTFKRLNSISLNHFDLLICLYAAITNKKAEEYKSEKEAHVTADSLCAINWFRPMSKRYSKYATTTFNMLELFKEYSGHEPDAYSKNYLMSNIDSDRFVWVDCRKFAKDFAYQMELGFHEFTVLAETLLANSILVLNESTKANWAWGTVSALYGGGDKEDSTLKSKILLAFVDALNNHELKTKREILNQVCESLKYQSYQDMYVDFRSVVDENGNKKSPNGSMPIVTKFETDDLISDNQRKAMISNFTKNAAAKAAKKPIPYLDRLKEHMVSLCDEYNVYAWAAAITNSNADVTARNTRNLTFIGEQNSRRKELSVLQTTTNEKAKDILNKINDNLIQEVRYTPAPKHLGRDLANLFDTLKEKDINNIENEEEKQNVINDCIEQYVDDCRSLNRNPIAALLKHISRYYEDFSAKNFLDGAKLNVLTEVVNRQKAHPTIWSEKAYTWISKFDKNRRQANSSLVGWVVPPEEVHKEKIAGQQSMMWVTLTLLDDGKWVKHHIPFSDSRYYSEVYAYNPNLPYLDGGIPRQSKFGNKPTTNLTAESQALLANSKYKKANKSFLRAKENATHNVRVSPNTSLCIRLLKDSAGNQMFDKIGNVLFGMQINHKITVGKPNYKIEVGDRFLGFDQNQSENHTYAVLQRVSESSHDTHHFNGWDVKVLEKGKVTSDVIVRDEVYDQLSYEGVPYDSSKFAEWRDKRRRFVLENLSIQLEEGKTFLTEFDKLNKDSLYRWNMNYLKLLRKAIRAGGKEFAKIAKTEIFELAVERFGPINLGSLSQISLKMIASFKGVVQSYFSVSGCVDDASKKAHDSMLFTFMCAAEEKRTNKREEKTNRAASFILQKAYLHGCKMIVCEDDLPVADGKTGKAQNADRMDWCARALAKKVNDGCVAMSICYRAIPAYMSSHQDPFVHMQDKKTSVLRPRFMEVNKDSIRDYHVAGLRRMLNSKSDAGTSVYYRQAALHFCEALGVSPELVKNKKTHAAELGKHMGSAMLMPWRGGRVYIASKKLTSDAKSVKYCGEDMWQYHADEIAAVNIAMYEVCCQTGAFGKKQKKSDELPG
# T2: xCas12i-A165R (synthetic construct, A165R)
# T2 chain: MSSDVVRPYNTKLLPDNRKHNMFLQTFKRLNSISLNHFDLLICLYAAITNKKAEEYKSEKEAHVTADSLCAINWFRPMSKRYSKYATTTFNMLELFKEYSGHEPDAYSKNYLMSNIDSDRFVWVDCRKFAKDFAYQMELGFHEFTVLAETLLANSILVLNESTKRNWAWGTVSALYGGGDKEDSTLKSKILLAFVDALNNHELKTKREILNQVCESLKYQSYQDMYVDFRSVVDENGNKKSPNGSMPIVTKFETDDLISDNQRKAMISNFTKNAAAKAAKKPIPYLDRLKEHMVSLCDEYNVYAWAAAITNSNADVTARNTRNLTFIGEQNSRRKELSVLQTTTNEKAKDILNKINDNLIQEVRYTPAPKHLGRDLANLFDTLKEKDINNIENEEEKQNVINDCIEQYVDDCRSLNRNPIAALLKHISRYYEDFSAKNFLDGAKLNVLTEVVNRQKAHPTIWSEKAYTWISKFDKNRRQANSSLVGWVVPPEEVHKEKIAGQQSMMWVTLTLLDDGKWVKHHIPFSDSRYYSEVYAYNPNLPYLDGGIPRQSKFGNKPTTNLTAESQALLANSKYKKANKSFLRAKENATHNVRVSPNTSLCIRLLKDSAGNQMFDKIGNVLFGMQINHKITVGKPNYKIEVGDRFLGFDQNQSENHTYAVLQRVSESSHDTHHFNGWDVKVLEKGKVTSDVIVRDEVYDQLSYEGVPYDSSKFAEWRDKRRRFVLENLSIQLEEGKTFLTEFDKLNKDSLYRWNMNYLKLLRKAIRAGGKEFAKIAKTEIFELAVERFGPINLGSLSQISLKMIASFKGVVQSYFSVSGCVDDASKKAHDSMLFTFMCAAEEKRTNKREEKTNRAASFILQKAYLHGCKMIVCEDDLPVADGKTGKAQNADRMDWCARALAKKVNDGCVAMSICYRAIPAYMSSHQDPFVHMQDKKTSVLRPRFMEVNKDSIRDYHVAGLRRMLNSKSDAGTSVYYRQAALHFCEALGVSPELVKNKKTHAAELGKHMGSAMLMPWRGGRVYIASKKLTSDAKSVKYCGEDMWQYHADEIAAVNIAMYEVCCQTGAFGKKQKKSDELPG
# T3: Cas12Max (xCas12i-N243R, v1.1) (synthetic construct)
# T3 chain: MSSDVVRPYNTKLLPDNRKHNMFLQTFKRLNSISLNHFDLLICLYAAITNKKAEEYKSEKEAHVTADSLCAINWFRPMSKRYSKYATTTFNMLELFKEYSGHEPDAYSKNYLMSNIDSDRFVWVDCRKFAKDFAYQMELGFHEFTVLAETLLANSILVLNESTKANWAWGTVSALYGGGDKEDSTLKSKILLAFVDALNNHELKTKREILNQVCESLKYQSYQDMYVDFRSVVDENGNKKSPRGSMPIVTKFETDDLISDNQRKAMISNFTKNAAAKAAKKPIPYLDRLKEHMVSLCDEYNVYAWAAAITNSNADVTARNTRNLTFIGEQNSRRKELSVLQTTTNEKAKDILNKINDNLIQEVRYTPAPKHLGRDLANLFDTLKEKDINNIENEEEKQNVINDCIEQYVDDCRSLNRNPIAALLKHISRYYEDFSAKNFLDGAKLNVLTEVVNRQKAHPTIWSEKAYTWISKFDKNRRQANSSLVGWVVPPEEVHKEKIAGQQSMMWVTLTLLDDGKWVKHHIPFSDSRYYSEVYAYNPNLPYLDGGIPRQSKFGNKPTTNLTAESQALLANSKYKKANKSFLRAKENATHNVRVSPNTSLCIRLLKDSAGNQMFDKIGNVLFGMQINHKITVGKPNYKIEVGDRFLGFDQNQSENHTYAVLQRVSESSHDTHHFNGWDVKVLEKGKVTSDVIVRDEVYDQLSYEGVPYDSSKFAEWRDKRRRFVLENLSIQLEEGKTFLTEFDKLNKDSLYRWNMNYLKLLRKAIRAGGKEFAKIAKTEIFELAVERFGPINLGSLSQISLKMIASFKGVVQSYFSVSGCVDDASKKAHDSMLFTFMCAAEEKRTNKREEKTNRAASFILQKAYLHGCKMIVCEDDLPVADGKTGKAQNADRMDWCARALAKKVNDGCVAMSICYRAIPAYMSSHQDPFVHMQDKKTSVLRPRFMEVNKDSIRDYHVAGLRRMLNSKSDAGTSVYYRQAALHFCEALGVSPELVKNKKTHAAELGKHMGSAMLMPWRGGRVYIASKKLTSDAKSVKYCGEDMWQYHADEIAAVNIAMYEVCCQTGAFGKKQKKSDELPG
# Tests used:
# Settings in all cases: tags: N-term SV40 NLS, C-term NP NLS
# [1] = target: T1, xCas12i (SiCas12i, Cas12i12); assay: cell_activity; 5' TTN PAM; EGFP reporter HEK293T; DR-T1
# Text: To vary xCas12i's dsDNA cleavage activity and expand its scope of PAM site recognition, the applicant engineered xCas12i protein via mutagenesis and screened for mutants with higher dsDNA cleavage activity and broader PAM using a dual plasmid fluorescent reporter system similar to the dual plasmid fluorescent reporter system in Example 1, except that the EGxxxxFP-targeting guide RNA (SEQ ID NO: 51; “crON”) coding sequence operably linked to U6 promoter was not located on the expression plasmid together with the xCas12i (or its mutant) coding sequence (SEQ ID NO: 31) but located on the reporter plasmid together with the BFP-P2A-EGxxxxFP coding sequence (SEQ ID NO: 41) (referring to “On-Target Reporter” in FIG. 1B). […] The applicant then individually transfected the expression plasmid and the reporter plasmid into HEK293T cells and analyzed them by FACS (FIG. 1B). […]
# xCas12i-A165R = target: T2, xCas12i-A165R; assay: cell_activity; 5' TTN PAM; EGFP reporter HEK293T
# [2] = target: T3, Cas12Max (xCas12i-N243R, v1.1); assay: cell_activity; 5' TTN PAM; EGFP reporter HEK293T
binder,measurement,setting,value
crEGFP guide with DR-T1 ; EGxxxxFP insertion target (ssRNA ; dsDNA) RNA: AUGACUCAGAAAUGUGUCCCCAGUUGACACCCAUUACAGUAGGAGCAUAC DNA 1: GGATCCGTGTCTTTCCCATTACAGTAGGAGCATACGGGAGACAAGCTTTG DNA 2: CAAAGCTTGTCTCCCGTATGCTCCTACTGTAATGGGAAAGACACGGATCC,binding signal,[1],1 fold of WT
same,binding signal,xCas12i-A165R,3.15 fold of WT
same,binding signal,[2],3.61 fold of WT
